Changes are numbered by the printed parent chain.
T1: Peptide 4: Biotin-AGGGGSGGGGSGGGGSAAA-Tyr-acid (N-terminal biotin; C-terminal acid)
T1 construct: Control peptide without PC
T1 peptide: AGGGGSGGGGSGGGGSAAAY

T2: Peptide 8: Biotin-AEAAAKEAAAKEAAAKEAAAKAAA-Tyr-acid (N-terminal biotin; C-terminal acid)
T2 construct: Control peptide without PC
T2 peptide: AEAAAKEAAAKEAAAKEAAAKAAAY

B1: PcOxP_DB03_E11 (scFv, V domains shown)
VH: EVQLLESGGGLVQPGGSLRLSCAASGFTFSDGYMEWVRQAPGKGLEWVAASRNKANDYTTEYADSVKGRFTISRDNSKNTLYLQMNSLRAEDTAVYYCARDYYGSSYWYFDVWGQGTLVTVSS
VL: DIVMTQSPDSLAVSLGERATINCKSSESLYSSKNKVHYLAWYQQKPGQPPKLLIYGASNRYIGVPDRFSGSGSGTDFTLTISSLQAEDVAVYYCAQFYHYPLTFGGGTKVEIK
notes: scFv in periplasmic extract
B2: PcOxP_DB04_C10 (scFv, V domains shown)
VH: B1 VH with S51I, S106H
VL: B1 VL with K24T, S25A, N34H, H99S
notes: scFv in periplasmic extract
B3: PcOxP_DB03_E12 (scFv, V domains shown)
VH: B1 VH with F27E, G32F, A55W
VL: B1 VL with K24T, S25A, N34H, H37N, H99S
notes: scFv in periplasmic extract
B4: PcOxP_DB04_A11 (scFv, V domains shown)
VH: B1 VH with G32Y, D57T
VL: B1 VL with K24T, S25A, L29V, Y30L, N34H, V36K, H37N, N59T, H99S
notes: scFv in periplasmic extract
B5: PcOxP_DB04_A04 (scFv, V domains shown)
VH: B1 VH with G32F, A55W
VL: B1 VL with K24T, S25A, E27Q, L29V, V36K, H99R
notes: scFv in periplasmic extract
B6: PcOxP_DB03_F11 (scFv, V domains shown)
VH: B1 VH with G32Y, D57S, E61A
VL: B1 VL with K24T, E27Q, Y30L, S31Y, K33S, V36K, H99E
notes: scFv in periplasmic extract
B7: PcOxP_DB03_G01 (scFv, V domains shown)
VH: B1 VH with D57F, Y102H
VL: B1 VL with K24T, S25A, N34H, H99N
notes: scFv in periplasmic extract
B8: PcOxP_DB03_G09 (scFv, V domains shown)
VH: B1 VH with T28S, G32F, A55W
VL: B1 VL with K24T, S25A, N34H, Q96S, H99S
notes: scFv in periplasmic extract
B9: PcOxP_DB04_B10 (scFv, V domains shown)
VH: B1 VH with F29D, G32F, D57G
VL: B1 VL with K24T, S25A, N34H, Y61P, A95G, H99S
notes: scFv in periplasmic extract
B10: PcOxP_DB03_G11 (scFv, V domains shown)
VH: B1 VH with D31S, G32Y
VL: B1 VL with E27Q, L29V, Y30L, N34H, V36K, H37N, H99S
notes: scFv in periplasmic extract
B11: PcOxP_DB04_A05 (scFv, V domains shown)
VH: B1 VH with G32F, M34I
VL: B1 VL with K24T, S25A, N34H, Y61E, H99S
notes: scFv in periplasmic extract
B12: PcOxP_DB03_F05 (scFv, V domains shown)
VH: B1 VH with G32Y, A55G, E61A, Y103F
VL: B1 VL with K24T, S25A, E27Q, L29V, N34H, K35N, V36K, R60P, H99S
notes: scFv in periplasmic extract
B13: PcOxP_DB03_H02 (scFv, V domains shown)
VH: B1 VH with F29E, G32F, A55Y
VL: B1 VL with K24T, S25A, N34H, S58Q, H99S
notes: scFv in periplasmic extract
B14: PcOxP_DB04_B07 (scFv, V domains shown)
VH: B1 VH with F27P, G32F, D57G
VL: B1 VL with K24T, S25A, N34H, H99S
notes: scFv in periplasmic extract
B15: PcOxP_DB03_F02 (scFv, V domains shown)
VH: B1 VH with D31S, G32Y, G104D
VL: B1 VL with K24T, Y30L, N34H, I62T, H99S
notes: scFv in periplasmic extract
B16: PcOxP_DB04_B11 (scFv, V domains shown)
VH: B1 VH with F27D, G32F, N53W
VL: B1 VL with K24T, S25A, N34H, H99S
notes: scFv in periplasmic extract
B17: PcOxP_DB04_C09 (scFv, V domains shown)
VH: B1 VH with D31S, G32Y, G104L
VL: B1 VL with K24T, S25A, S32P, N34H, S58E, H99S
notes: scFv in periplasmic extract
B18: PcOxP_DB03_H10 (scFv, V domains shown)
VH: B1 VH with S30D, G32F, K54E
VL: B1 VL with K24T, S25A, N34H, S58G
notes: scFv in periplasmic extract
B19: PcOxP_DB04_B01 (scFv, V domains shown)
VH: B1 VH with F29Q, G32F, S105E
VL: B1 VL with K24T, S25A, E27V, N34H, A57P, H99S
notes: scFv in periplasmic extract
B20: PcOxP_DB04_B12 (scFv, V domains shown)
VH: B1 VH with G32Y
VL: B1 VL with K24T, S25A, N34H, Q96A, H99S
notes: scFv in periplasmic extract
B21: PcOxP_DB03_F07 (scFv, V domains shown)
VH: B1 VH with F29Q, G32F, A55G, D57S, E61A
VL: B1 VL with K24T, S25A, S32G, N34H, H99S
notes: scFv in periplasmic extract
B22: PcOxP_DB03_G12 (scFv, V domains shown)
VH: B1 VH with G32Y, A55Y
VL: B1 VL with L29V, N34H, V36K, H99S
notes: scFv in periplasmic extract
B23: PcOxP_DB03_F03 (scFv, V domains shown)
VH: B1 VH with G32Q, A55N, S105A
VL: B1 VL with K24T, S25A, E27Q, L29V, N34H, V36K, S58N, A95G, H99S
notes: scFv in periplasmic extract

Legend:
Assay in all cases: scFv ELISA
[1] = target: Peptide 1: Biotin-…-[Tyr(PC)]-acid
[2] = target: Peptide 5: Biotin-…-[Tyr(PC)]-acid
BSA = BSA (UniProt P02769)
[3] = target: T1, Peptide 4: …
In short: (§1)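 Bound scFv was read as OD450 after HRP–anti-V5 detection, TMB development and HCl stop. PPE with BSA was incubated 1 h at RT on BSA-blocked wells coated overnight at 4° C. with peptide, or on streptavidin wells loaded 1 h with biotinylated PC-peptides at 1 μg/mL.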

[4] = target: T2, Peptide 8: …
In short: as §1

Chain of BSA (P02769 25-607 limits assumed): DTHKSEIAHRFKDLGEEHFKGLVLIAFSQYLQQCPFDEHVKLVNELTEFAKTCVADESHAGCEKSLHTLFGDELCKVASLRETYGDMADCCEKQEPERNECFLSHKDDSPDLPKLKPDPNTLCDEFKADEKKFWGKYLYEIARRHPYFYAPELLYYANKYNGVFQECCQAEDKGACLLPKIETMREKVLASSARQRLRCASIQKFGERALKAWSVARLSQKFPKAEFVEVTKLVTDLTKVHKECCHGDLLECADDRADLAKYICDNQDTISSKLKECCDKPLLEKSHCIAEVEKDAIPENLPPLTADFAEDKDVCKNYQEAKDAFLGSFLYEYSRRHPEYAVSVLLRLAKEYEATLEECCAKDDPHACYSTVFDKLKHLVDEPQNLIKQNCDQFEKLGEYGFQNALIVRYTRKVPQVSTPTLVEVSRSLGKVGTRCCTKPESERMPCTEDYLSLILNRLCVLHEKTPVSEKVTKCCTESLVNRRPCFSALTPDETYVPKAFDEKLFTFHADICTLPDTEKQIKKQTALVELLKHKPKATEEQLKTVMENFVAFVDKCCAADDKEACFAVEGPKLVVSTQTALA

Row | Binder | OD450 [1] [OD450] | OD450 [2] [OD450] | OD450 (BSA) [OD450] | OD450 [3] [OD450] | OD450 [4] [OD450]
1 | B1 | 1.4 | 1.58 | 0.07 | 0.05 | 0.04
2 | B2 | 0.54 | 1.03 | 0.08 | 0.06 | 0.05
3 | B3 | 0.57 | 0.88 | 0.06 | 0.06 | 0.06
4 | B4 | 0.64 | 1.6 | 0.1 | 0.07 | 0.08
5 | B5 | 1.09 | 1.9 | 0.11 | 0.08 | 0.08
6 | B6 | 1.47 | 1.43 | 0.12 | 0.06 | 0.06
7 | B7 | 0.66 | 1.19 | 0.09 | 0.05 | 0.05
8 | B8 | 0.74 | 1.07 | 0.07 | 0.05 | 0.05
9 | B9 | 1.05 | 1.56 | 0.06 | 0.05 | 0.04
10 | B10 | 0.26 | 0.72 | 0.1 | 0.05 | 0.05
11 | B11 | 0.72 | 1.29 | 0.06 | 0.04 | 0.04
12 | B12 | 0.73 | 1.04 | 0.06 | 0.05 | 0.04
13 | B13 | 1.07 | 1.69 | 0.05 | 0.05 | 0.04
14 | B14 | 0.93 | 1.33 | 0.09 | 0.06 | 0.05
15 | B15 | 1.56 | 1.68 | 0.07 | 0.05 | 0.05
16 | B16 | 0.26 | 0.31 | 0.08 | 0.05 | 0.05
17 | B17 | 0.55 | 1.21 | 0.11 | 0.07 | 0.06
18 | B18 | 0.24 | 0.39 | 0.05 | 0.04 | 0.07
19 | B19 | 0.45 | 0.78 | 0.06 | 0.05 | 0.05
20 | B20 | 0.13 | 0.34 | 0.09 | 0.04 | 0.04
21 | B21 | 0.53 | 1.19 | 0.08 | 0.05 | 0.05
22 | B22 | 1.57 | 1.91 | 0.08 | 0.06 | 0.05
23 | B23 | 1.13 | 1.93 | 0.08 | 0.05 | 0.05
